Reference: PMC9295563, “A Reduced F420-Dependent Nitrite Reductase in an Anaerobic Methanotrophic Archaeon” (Journal of Bacteriology, 2022)

Assays:
ANME2c-FsrII-6D [1] = target: T1, ANME2c-FsrII-6D (uncultured archaeon, UniProt Z9BHN8L6W9); assay: inhibition of F420H2-dependent nitrite reduction, F420H2 oxidation at […] nm; format: biochemical, uncultured ANME-2c archaeon; parameters: gene fsr; full-length two-domain protein (Fsr-N 1-341, Fsr-C 356-642); expressed from pDS701 in Methanosarcina acetivorans WWM60; F420-Sepharose purified, no tag mentioned; siroheme, FAD, about four [Fe4-S4] per subunit; conditions: read-out: apparent Ki
T1 sequence (Z9BHN8L6W9 1-642): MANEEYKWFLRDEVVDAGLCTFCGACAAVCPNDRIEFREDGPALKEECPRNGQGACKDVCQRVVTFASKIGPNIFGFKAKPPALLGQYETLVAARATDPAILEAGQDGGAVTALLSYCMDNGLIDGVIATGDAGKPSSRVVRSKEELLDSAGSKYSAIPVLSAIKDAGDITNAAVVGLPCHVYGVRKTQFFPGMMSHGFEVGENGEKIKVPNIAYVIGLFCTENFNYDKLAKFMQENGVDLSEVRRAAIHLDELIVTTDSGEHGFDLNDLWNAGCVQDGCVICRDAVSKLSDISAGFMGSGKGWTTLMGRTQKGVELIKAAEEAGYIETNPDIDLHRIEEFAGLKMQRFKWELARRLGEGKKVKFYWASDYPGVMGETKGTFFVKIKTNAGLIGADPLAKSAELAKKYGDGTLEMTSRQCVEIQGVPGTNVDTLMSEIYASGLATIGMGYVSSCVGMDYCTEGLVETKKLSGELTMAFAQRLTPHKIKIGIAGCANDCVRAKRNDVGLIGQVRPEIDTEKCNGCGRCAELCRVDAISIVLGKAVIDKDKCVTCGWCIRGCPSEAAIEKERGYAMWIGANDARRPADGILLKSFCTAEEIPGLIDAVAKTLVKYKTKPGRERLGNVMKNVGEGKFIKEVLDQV
O=NO = assay: purified protein; conditions: 40 μM F420H2, 2-100 μM nitrite, 0.5 mM DTT, pH 7 phosphate, anaerobic, kcat in electrons transferred per subunit
[2] = tested on: CN1C=C[C](c2cc[n+](C)cc2)C=C1; assay: purified protein; format: biochemical, uncultured ANME-2c archaeon; conditions: pH 7.0
O=S(O)O = tested on: T2, O=S(O)O; assay: purified protein; format: biochemical, uncultured ANME-2c archaeon; conditions: 408 μM reduced methyl viologen, 10-500 μM sulfite, with DTT, pH 7 phosphate, anaerobic, kcat in electrons transferred per subunit
T2 construct: full-length two-domain protein (Fsr-N 1-341, Fsr-C 356-642); expressed from pDS701 in Methanosarcina acetivorans WWM60; F420-Sepharose purified, no tag mentioned; siroheme, FAD, about four [Fe4-S4] per subunit

ANME2c-FsrII-6D [3] = target: T1, ANME2c-FsrII-6D; assay: F420H2 oxidation at […] nm; parameters: gene fsr; conditions: read-out: Km (μM) for the varied substrate; 500 μM nitrite, 1-80 μM F420H2, 0.5 mM DTT, pH 7 phosphate, anaerobic; kcat in electrons transferred per subunit

O=S(O)O [sulfite]
Ki (ANME2c-FsrII-6D [1]): 130 ± 86 µM

ANME2c-FsrII-6D (uncultured archaeon)
Km (O=NO): 5 ± 1 µM | kcat (O=NO): 0.3 ± 0.0167 s⁻¹ | kcat/Km (O=NO): 4 ± 1 (NO2^−) | Km [2]: 137 ± 26 µM | kcat/Km [2]: 0.5 ± 0.1 (MV^·+) | Km (O=S(O)O): 129 ± 20 µM | kcat (O=S(O)O): 1.07 ± 0.0667 s⁻¹ | kcat/Km (O=S(O)O): 0.5 ± 0.1 (HSO3^−)

F420H2
Km (ANME2c-FsrII-6D [3]): 14 ± 2 µM
